Reference: US20210071162A1 (CENTRE NATIONAL DE LA RECHERCHE SCIENTIFIQUE, published 2021)

Columns and labels:
[1] = target: T1, GLM
T1 chain: GLM

[2] = target: T2, GMDSLAFSGGL
T2 chain: GMDSLAFSGGL

[3] = target: T3, Gly-Gly-pNA
T3 chain: GG

[4] = target: T4, LGG
T4 chain: LGG

[5] = target: the molecule itself; test: self-assembly of PhTET4 subunits; size-exclusion chromatography and negative stain electron microscopy
Procedure: After the size exclusion chromatography step, 4 μl of PhTET4 at 0.05 mg/ml were deposited onto carbon-coated 400-mesh copper grids. The samples were stained using uranyl acetate 2% and air-dried. Images were taken under low-dose conditions in a T12FEI electron microscope working at 120 kV and with a nominal magnification of 40,000 using an Orius SC1000 CCD camera.
The three-dimensional structure of PhTET4 was assessed by producing the recombinant PhTET4 in E. coll. The cellular extract was clarified by heat shock precipitation and the recombinant protein was purified by ion-exchange and size-exclusion chromatographies. […] The dimensions and the shape of PhTET4 are analogous to the three P. horikoshii tetrahedral TET edifices: PhTET1, PhTET2 and PhTET3.

B1: PhTET4 (enzyme)
chain: MERIVKILREILEIPSPTGYTKEVMSYLEKFLKENEVNFYYTNKGALIAGNHPKPELVVIAHVDTLGAMVKEILPDGHLAFSRIGGLVLPTFEGEYCTIITRKGKKFRGTLLLRNPSAHVNREVGKKERKEENMYIRLDELVEKREDTEKLGIRPGDFIAFDPKFEYVNGFVKSHFLDDKASVAAILDLIIDMKDELEKYPVAFFFSPYEEVGHGGSAGYPPTTKELLVVDMGVVGEGVSGKETAVSIAAKDTTGPYDYDMTNRLIELAEENNIPYVVDVFPYYGSDGSAALRAGWDFRVALIGPGVHASHGMERTHVKGLLATKELIRAYIKWKG
notes: also called TET protein; protein encoded by PH0737 gene
cleavage of the N-terminal residue of the peptide (reverse phase HPLC, N-terminal sequencing of products) [1]: PhTET4 does not exert amidolytic activity beyond the N-ter glycine in a peptide context | cleavage of the N-terminal residue of the peptide (reverse phase HPLC, N-terminal sequencing of products) [2]: PhTET4 does not exert amidolytic activity beyond the N-ter glycine in a peptide context | enzymatic activity against the chromogenic peptide (released pNA), relative to Gly-pNA [3]: PhTET4 displayed significant activity against this substrate, corresponding to 10% of the total activity exhibited in presence of monoacyl compound Gly-pNA | cleavage of the N-terminal residue of the peptide (reverse phase HPLC, N-terminal sequencing of products) [4]: no enzymatic activity was detected against peptide that do not start by glycine residue even if a glycine residue is present at P1′ position as demonstrated with the LGG tripeptide | binding result [5]: binds
